Experimental data taken from patent US20130243795A1 (Janssen / Centocor, published 2013).
Residue numbers refer to the chain shown, from its start.

How the values were obtained:
[1] = molecular target: T1, Human CD27 ECD, monomeric soluble (construct limits not stated) (human, UniProt P26842 20-191); assay: Biacore SPR; mAb captured via anti-mouse Fc; CD27 ECD as analyte; 25 C
T1 construct: extracellular domain; target of the Biacore assays; also called monomeric soluble CD27; CD27-His

[2] = molecular target: T2, Human CD27, full length on the cell surface (human, UniProt P26842 21-260); assay: cell-based or functional assay
[3] = molecular target: T3, Recombinant human CD27/Fc chimera (R&D Systems, Cat#382-CD) (human, UniProt P26842 20-191); assay: inhibition of IM-9 (CD70+) cell binding to immobilized CD27/Fc
T3 construct: extracellular domain; bought protein; also called huCD27-Fc; Hu CD27 Fc; Fc part of the bought chimera not given

[4] = molecular target: T2, Human CD27, full length on the cell …; assay: cell-based or functional assay; remark: listed apart in the source
[5] = molecular target: T1, Human CD27 ECD, monomeric soluble …; assay: Biacore SPR, purified mAb
[6] = molecular target: T1, Human CD27 ECD, monomeric soluble …; assay: Biacore SPR, purified mAb; reference M160
[7] = molecular target: T4, Human CD27 ECD truncated (ECD 1-121, cleavage site, His6) (human); assay: ProteOn SPR, purified mAb, CD27-His
T4 construct: also called human CD27 ECD with His Tag; CD27-His
T4 chain: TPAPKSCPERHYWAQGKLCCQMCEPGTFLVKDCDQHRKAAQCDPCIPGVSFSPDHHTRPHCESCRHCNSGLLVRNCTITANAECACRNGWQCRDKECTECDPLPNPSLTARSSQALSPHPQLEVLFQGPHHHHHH

[8] = molecular target: T5, Human CD27 ECD (ECD 1-173, His6) (human, UniProt P26842 21-193, biotinylated on amine residues (NHS-ester) where used biotinylated); assay: Fab format, pIX display and binding
T5 construct: also called biotinylated human CD27 ECD

[9] = molecular target: T4, Human CD27 ECD truncated (ECD 1-121, …); assay: ProteOn SPR, purified mAb, CD27-His
[10] = molecular target: T1, Human CD27 ECD, monomeric soluble …; assay: Biacore SPR, purified mAb; reference M158
[11] = molecular target: T1, Human CD27 ECD, monomeric soluble …; assay: Biacore SPR, purified mAb; reference M166

T3 sequence (P26842 20-191, change not shown): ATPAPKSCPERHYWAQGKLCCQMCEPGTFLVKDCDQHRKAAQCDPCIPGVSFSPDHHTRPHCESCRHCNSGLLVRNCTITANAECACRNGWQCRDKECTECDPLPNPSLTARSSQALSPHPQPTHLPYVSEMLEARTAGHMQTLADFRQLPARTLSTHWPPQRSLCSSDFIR
T1 sequence (P26842 20-191): as the sequence (P26842 20-191, change not shown) above

B1: C2177 (antibody, V domains shown)
VH: QVQLQQSGPELVKPGASVKISCKASGYAFSSSWMNWVKQRPGKGLEWIGRIYPGDGDTNYNGKFKGKATLTADKSSSTAYMQLSSLTSEDSAVYFCARSDYYGDYGFAYWGQGTLVTVSA
VL: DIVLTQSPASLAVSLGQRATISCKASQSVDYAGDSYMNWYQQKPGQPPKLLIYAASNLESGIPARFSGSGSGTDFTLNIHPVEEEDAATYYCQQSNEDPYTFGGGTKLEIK
notes: also called C2177 hybridoma mAb
For B1, the Kd [1] was 3.07 nM, the “Agonism at 50 ug/ml (fold-increase in reporter gene signal relative to isotype control)” value [2] was 1.85 fold and the “NF-kB reporter IC50” value [2] was 0.04 µg/mL. For the same binder, the IC50 [3] was 0.063 µg/mL, the “Plasma blast differentiation % Inhibition at 2.5 ug/ml” value [4] was 78% and the “T-Cell Proliferation % Inhibition at highest concentration (30 ug/ml)” value (from here on “T-Cell Proliferation % Inhibition”) [4] was 75.4%. The “T-Cell Proliferation - CD4+ Cells IC50” value [4] was 0.245 µg/mL.

B2: C2192 (antibody, V domains shown)
VH: B1 VH with S99R, D100W, Y101D, Y102G, D104N, G106F, A108D, L115T, V116L, A120S
VL: DIVMTQSHKFMSTSVGDRVSITCMASQDVGTAVAWYQRRPGQSPKLLIYWTSTRHTGVPDRFTGSGSGTDFTLTISNVQSEDLADYFCQQYSSYPLTFGSGTKLEIK
With B2 the Kd [1] was 0.21 nM, the “Agonism at 50 ug/ml (fold-increase in reporter gene signal relative to isotype control)” value [2] was 5.39 fold and the “NF-kB reporter IC50” value [2] was 0.232 µg/mL. The IC50 [3] was 0.054 µg/mL, the “Plasma blast differentiation % Inhibition at 2.5 ug/ml” value [4] was 74% and the “T-Cell Proliferation % Inhibition” value [4] was 75.7%. For the same binder, the “T-Cell Proliferation - CD4+ Cells IC50” value [4] was 0.445 µg/mL.

B3: C2186 (antibody, V domains shown)
VH: QVQLQQPGAELVKPGASVKLSCKASGYTFTNYWMNWVKQRPGRGLEWIGRIHPSDSETHYNQNFKSKATLTVDKSSSTAYIQLSSLTSEDSAVYYCARPVLYGDYGFPCWGQGTLVTVSA
VL: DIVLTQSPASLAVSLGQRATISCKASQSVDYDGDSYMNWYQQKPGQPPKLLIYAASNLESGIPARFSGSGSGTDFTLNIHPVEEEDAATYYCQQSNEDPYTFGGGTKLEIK
With B3 the Kd [1] was 2.55 nM, the “Agonism at 50 ug/ml (fold-increase in reporter gene signal relative to isotype control)” value [2] was 2.55 fold and the “NF-kB reporter IC50” value [2] was 0.105 µg/mL. For the same binder, the IC50 [3] was 0.059 µg/mL, the “Plasma blast differentiation % Inhibition at 2.5 ug/ml” value [4] was 93% and the “T-Cell Proliferation % Inhibition” value [4] was 65.3%. For the same binder, the “T-Cell Proliferation - CD4+ Cells IC50” value [4] was 0.775 µg/mL.

B4: C2191 (antibody, V domains shown)
VH: EVKLVESGGGLVKPGGSLKLSCAASGFTFSSYTMSWVRQTPEKRLEWVAYISSGGGNTYYPDSVKGRFTISRDNARNTLYLQMSSLRSEDTAMYYCSRHRGNPFDYWGQGTTLTVSS
VL: DIVLTQSPASLAVSLGQRATISCRASKSVSTSGYSFMHWYQQKPGQPPKLLIYLASNLESGVPARFSGSGSGTDFTLNIHPVEEEDAATYYCQHSRELPWTFGGGTKLEIK
notes: also called C2191 hybridoma mAb
In the case of B4, the Kd [1] is reported as 2.62 nM, the “Agonism at 50 ug/ml (fold-increase in reporter gene signal relative to isotype control)” value [2] is reported as 3.05 fold and the “NF-kB reporter IC50” value [2] is reported as 0.08 µg/mL. For the same binder, the IC50 [3] was 0.059 µg/mL, the “Plasma blast differentiation % Inhibition at 2.5 ug/ml” value [4] was 105% and the “T-Cell Proliferation % Inhibition” value [4] was 58.3%. The “T-Cell Proliferation - CD4+ Cells IC50” value [4] was 0.3 µg/mL.

B5: M169 (antibody, V domains shown)
VH: EVQLVQSGAEVKKPGESLKISCKGSGYAFSSSWMNWVRQMPGKGLEWMGRIYSGDGDTNYNGKFKGQVTISADKSISTAYLQWSSLKASDTAMYYCARSDYYGDYGFAYWGQGTLVTVSS
VL: DIQMTQSPSSLSASVGDRVTITCKASQSVDYAGDSFMNWYQQKPGKAPKLLIYAASNLESGVPSRFSGSGSGTDFTLTISSLQPEDFATYYCQQSNEDPYTFGQGTKVEIK
notes: isotype not restated (path 2 mAbs were IgG4 Ser to Pro, Ala/Ala / kappa); also called H221, L219; CM169
B5 gave a Kd [5] of 0.069 nM, a koff [5] of 0.000102 s⁻¹ and a kon [5] of 1.48e+06 M⁻¹ s⁻¹. For the same binder, the “fold improvement in KD against the corresponding VH1-46 variant” value (“fold improvement in KD” for short) [6] was 2 fold, the Kd [7] was 0.059 nM and the koff [7] was 0.000139 s⁻¹. The kon [7] was 2.36e+06 M⁻¹ s⁻¹.

B6: M55 (VH1-46/Vk012 HFR Fab of C2177) (Fab, V domains shown)
VH: QVQLVQSGAEVKKPGASVKVSCKASGYAFSSSWMNWVRQAPGQGLEWMGRIYPGDGDTNYNGKFKGRVTMTRDTSTSTVYMELSSLRSEDTAVYYCARSDYYGDYGFAYWGQGTLVTVSS
VL: B5 VL with F36Y, V108L
notes: Fab with human CH1 and Ck in the pIX phage display vector; also called H25/L36; parent HFR Fab
B6: binds [8].

B7: M671 (antibody, V domains shown)
VH: B5 VH with G56A, G62Q
VL: B5 VL with D34E
notes: isotype not restated (path 2); also called H258,L266
In the case of B7, the “fold lower KD against the parental mAb M169” value [9] is reported as about 2 fold, the Kd [7] is reported as 0.039 nM and the koff [7] is reported as 9.73e-05 s⁻¹. For the same binder, the kon [7] was 2.52e+06 M⁻¹ s⁻¹.

B8: M171 (antibody, V domains shown)
VH: B5 VH
VL: B5 VL with F36Y
notes: isotype not restated (path 2); also called H221, L220
With B8 the Kd [5] was 0.234 nM, the koff [5] was 0.000358 s⁻¹ and the kon [5] was 1.53e+06 M⁻¹ s⁻¹. The “fold improvement in KD” value [10] was 2 fold.

B9: M668 (antibody, V domains shown)
VH: B6 VH with P53S, G56A, N61A, G62Q
VL: B5 VL with D34E
notes: isotype not restated (path 2); also called H255,L266
For B9, the “fold lower KD against the parental mAb M160” value [9] was about 2 fold, the Kd [7] was 0.06 nM and the koff [7] was 0.000129 s⁻¹. The kon [7] was 2.14e+06 M⁻¹ s⁻¹.

B10: M170 (antibody, V domains shown)
VH: B5 VH
VL: B5 VL with G33H, D34E
notes: isotype not restated (path 2); also called H221, L217
For B10, the “fold improvement in KD” value [11] was 2 fold, the Kd [5] was 0.07 nM and the koff [5] was 0.000116 s⁻¹. The kon [5] was 1.66e+06 M⁻¹ s⁻¹.

B11: Parent Fab (VH3-23/Vk012 HFR Fab of C2191) (Fab, V domains shown)
VH: EVQLLESGGGLVQPGGSLRLSCAASGFTFSSYTMSWVRQAPGKGLEWVSYISSGGGNTYYPDSVKGRFTISRDNSKNTLYLQMNSLRAEDTAVYYCARHRGNPFDYWGQGTLVTVSS
VL: DIQMTQSPSSLSASVGDRVTITCRASKSVSTSGYSFMHWYQQKPGKAPKLLIYLASNLESGVPSRFSGSGSGTDFTLTISSLQPEDFATYYCQHSRELPWTFGQGTKVEIK
notes: Fab with human CH1 and Ck in the pIX phage display vector; also called H39/L40; parental HFR Fab
B11: binds [8].
